Article PMC4850381 (2016)

T1: tree shrew CRHR1 extracellular domain (tree shrew)
T1 chain: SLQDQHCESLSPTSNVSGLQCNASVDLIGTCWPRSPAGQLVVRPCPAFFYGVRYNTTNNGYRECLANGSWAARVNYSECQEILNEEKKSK

T2: human CRHR1 extracellular domain (human)
T2 chain: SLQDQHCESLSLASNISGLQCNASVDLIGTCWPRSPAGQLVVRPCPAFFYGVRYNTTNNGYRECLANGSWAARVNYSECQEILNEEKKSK


Legend:
[1] = biological target: T1, tree shrew CRHR1 extracellular domain; test: SPR; BIACORE3000; CRHR1-ECD immobilised on the sensor chip (about 2000 RU, 10 mM NaAc pH 4.5); CRH peptides serially diluted (5 concentrations) in PBS pH 7.4, 30 μl/min, 3 min injection, 2 min dissociation, 25 °C
[2] = biological target: T2, human CRHR1 extracellular domain; test: SPR
[3] = biological target: T1, tree shrew CRHR1 extracellular domain; test: SPR
[4] = biological target: T2, human CRHR1 extracellular domain; test: SPR; BIACORE3000; CRHR1-ECD immobilised on the sensor chip (about 2000 RU, 10 mM NaAc pH 4.5); CRH peptides serially diluted (5 concentrations) in PBS pH 7.4, 30 μl/min, 3 min injection, 2 min dissociation, 25 °C

Molecule | Kd [1] | Kd [2] | Kd [3] | Kd [4]
tree shrew corticotrophin-releasing hormone (CRH) peptide | 176 nM | – | – | –
SEEPPISLDLTFHLLREVLEMARAEQLAQQAHSNRKLMEMI [tree shrew corticotrophin-releasing hormone (CRH) peptide] | – | 2050 nM | 1760 nM | –
SEEPPISLDLTFHLLREVLEMARAEQLAQQAHSNRKLMEIIGK [human corticotrophin-releasing hormone (CRH) peptide] | – | 2110 nM | 1460 nM | 211 nM
